6 molecules from publication doi:10.1101/2024.04.26.591257 (bioRxiv, 2024) can be followed below.

In test [1] the target is WOX5-mV(N)/PLT3-mV(C) heterodimer (split mVenus donor) (Arabidopsis thaliana) (UniProt Q8H1D2). The test is described as follows: split reporter.
In test [2] the target is BRAVO-mV (BRASSINOSTEROIDS AT VASCULAR AND ORGANIZING CENTRE fused to mVenus) (Arabidopsis thaliana) (UniProt Q6R053). The test is described as follows: FRET or BRET.
The target of test [3] is T1, BRAVO-mV (BRASSINOSTEROIDS AT VASCULAR AND ORGANIZING CENTRE fused to mVenus) (Arabidopsis thaliana, UniProt Q6R053 1-323).
T1 sequence (looked up): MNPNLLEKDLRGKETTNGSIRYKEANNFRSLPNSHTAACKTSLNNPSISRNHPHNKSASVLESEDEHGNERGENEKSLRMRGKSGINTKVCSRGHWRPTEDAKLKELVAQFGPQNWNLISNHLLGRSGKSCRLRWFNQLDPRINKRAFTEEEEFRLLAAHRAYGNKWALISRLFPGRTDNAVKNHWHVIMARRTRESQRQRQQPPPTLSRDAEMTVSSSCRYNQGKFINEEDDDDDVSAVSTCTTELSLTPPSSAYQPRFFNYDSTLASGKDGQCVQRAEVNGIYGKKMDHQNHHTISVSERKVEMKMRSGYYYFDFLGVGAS
In words: FRET or BRET. On the technique in general: In BRET a luciferase serves as donor, and the signal depends on an acceptor being close.

Test [4] has as its target T2, BRAVO-mV(N)/PLT3-mV(C) heterodimer (split mVenus donor) (Arabidopsis thaliana, UniProt Q6R053 1-323; Q52QU2 1-581).
T2 sequence (looked up) 1: T1 sequence (looked up)
T2 sequence (looked up) 2: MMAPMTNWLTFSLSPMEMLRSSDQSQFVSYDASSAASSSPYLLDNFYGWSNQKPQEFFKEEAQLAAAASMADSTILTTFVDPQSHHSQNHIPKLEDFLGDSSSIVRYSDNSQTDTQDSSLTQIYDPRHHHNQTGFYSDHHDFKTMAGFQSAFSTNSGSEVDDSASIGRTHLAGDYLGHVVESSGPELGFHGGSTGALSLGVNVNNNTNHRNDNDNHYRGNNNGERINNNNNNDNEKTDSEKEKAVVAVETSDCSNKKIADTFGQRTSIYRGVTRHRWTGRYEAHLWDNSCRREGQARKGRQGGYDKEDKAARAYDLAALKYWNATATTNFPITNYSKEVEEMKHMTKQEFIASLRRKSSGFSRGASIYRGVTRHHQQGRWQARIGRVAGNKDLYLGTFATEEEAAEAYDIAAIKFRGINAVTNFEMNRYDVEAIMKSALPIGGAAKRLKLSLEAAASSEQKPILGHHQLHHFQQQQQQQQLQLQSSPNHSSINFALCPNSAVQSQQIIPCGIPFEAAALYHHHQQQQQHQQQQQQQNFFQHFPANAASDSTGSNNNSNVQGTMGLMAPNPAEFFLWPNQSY
The test is described as follows: split reporter.

The target of test [5] is T3, WOX5-mV(N)/PLT3-mV(C) heterodimer (split mVenus donor) (Arabidopsis thaliana, UniProt Q8H1D2 1-182; Q52QU2 1-581).
T3 sequence (looked up) 1: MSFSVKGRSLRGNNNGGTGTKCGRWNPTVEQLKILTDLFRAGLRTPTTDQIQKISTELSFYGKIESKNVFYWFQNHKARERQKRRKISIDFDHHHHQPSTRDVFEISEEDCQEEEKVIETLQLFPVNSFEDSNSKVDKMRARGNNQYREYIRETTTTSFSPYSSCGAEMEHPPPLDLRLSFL
T3 sequence (looked up) 2: T2 sequence (looked up) 2
The test is described as follows: split reporter.

Test [6] has as its target BES1D-mV (BES1D fused to mVenus) (Arabidopsis thaliana) (UniProt Q9LN63). The test is described as follows: FRET or BRET.
Test [7] concerns the target T4, TPL-mV (TOPLESS fused to mVenus) (Arabidopsis thaliana, UniProt Q94AI7 1-1131).
T4 sequence (looked up): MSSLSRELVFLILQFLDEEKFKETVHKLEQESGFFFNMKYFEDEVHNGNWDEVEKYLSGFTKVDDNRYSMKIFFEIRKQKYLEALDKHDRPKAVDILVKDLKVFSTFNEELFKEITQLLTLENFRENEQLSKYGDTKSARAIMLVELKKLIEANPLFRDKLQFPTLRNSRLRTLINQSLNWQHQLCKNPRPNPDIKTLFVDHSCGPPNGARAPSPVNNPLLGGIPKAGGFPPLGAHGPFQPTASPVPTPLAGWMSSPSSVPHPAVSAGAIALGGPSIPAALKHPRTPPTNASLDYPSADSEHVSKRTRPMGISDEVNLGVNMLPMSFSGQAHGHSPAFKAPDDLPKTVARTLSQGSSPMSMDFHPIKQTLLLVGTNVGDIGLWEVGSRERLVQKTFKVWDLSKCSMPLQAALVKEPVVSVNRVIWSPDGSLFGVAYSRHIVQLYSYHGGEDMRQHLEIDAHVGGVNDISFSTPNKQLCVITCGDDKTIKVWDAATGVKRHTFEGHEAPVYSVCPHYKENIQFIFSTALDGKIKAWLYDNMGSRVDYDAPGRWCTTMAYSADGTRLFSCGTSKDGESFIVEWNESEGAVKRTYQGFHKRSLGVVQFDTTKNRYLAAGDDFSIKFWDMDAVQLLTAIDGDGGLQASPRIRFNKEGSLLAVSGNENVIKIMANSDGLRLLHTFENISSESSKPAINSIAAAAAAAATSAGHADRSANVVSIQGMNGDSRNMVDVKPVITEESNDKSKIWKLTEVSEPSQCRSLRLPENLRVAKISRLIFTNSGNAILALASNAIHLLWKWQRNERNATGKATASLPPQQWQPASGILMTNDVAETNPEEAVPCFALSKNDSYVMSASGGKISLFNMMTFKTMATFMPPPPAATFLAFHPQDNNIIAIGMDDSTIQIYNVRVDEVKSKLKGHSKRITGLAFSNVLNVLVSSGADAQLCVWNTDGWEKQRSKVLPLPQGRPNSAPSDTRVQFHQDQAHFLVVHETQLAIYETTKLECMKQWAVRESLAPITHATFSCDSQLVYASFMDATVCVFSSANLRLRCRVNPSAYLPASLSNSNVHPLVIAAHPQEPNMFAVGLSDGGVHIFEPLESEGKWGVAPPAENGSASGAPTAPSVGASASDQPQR
The test is described as follows: FRET or BRET.

Sequence of BES1D-mV (BES1D fused to mVenus) (Arabidopsis thaliana) (Q9LN63 whole entry, the tested form may be a part): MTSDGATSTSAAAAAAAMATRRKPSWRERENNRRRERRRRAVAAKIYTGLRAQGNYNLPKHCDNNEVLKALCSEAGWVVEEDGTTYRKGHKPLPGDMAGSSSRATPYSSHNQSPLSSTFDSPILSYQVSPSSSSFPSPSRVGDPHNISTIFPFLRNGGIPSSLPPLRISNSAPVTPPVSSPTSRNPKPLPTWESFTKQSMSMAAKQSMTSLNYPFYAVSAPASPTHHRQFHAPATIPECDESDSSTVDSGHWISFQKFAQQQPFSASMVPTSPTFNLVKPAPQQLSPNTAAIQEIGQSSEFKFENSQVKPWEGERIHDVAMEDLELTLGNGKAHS

In the case of “BES1D-mCh (BRI1-EMS-SUPPRESSOR 1, BES1D form, fused to mCherry) (from UniProt Q9LN63 1-335) (natural protein)”, in test [1], the binding [%] (BiFC-FRET) turned out to be 18.7%. The molecule also had a binding [%] (FRET-FLIM) in test [2] of 27.4%. In the case of “PLT3ΔPrD-mCh (PLT3 with its prion-like domains deleted, fused to mCherry) (from UniProt Q9ZNS0 1-508) (natural protein)”, the binding [%] (FRET-FLIM) in test [2] was determined as 11.7%.

B1: TPL-mCh (TOPLESS fused to mCherry) (natural protein, Arabidopsis thaliana, UniProt Q94AI7 1-1131, looked up)
chain: T4 sequence (looked up)
As for B1, the “binding [%] (FRET-FLIM)” value in test [3] was 26.7 ± 9.8%. Also, the “binding [%] (BiFC-FRET)” value came to 21.1 ± 8.3% in test [4] and 23.3 ± 8.3% in test [5].

B2: PLT3-mCh (PLETHORA 3 fused to mCherry) (natural protein, Arabidopsis thaliana, UniProt Q52QU2 1-581, looked up)
chain: T2 sequence (looked up) 2
As for B2, the binding [%] (FRET-FLIM) in test [6] was found to be 16.9%; in test [7], 13.5 ± 4.3%.

B3: BRAVO-mCh (BRAVO fused to mCherry) (natural protein, Arabidopsis thaliana, UniProt Q6R053 1-323, looked up)
chain: T1 sequence (looked up)
B3: the “binding [%] (BiFC-FRET)” value in test [5] amounted to 36.3 ± 10.7%.

B4: WOX5-mCh (WUSCHEL-RELATED HOMEOBOX 5 fused to mCherry) (natural protein, Arabidopsis thaliana, UniProt Q8H1D2 1-182, looked up)
chain: T3 sequence (looked up) 1
On to B4, for which the “binding [%] (FRET-FLIM)” value in test [3] came to 22.4 ± 14.1%. Further, in test [4], the “binding [%] (BiFC-FRET)” value was 29.8 ± 10.6%.
